Experimental data reported in the Immune Epitope Database (IEDB).

Key:
HLA-A*30:02 = assay: IEDB peptide-MHC binding, purified MHC/competitive/radioactivity; filed as Kd, often an IC50 or EC50 that approximates it; ≥ and ≤ were set here for values at or beyond the usual limits of such assays; settings: source organism: Dengue virus 1 Brazil/97-11/1997
HLA-B*15:02 = assay: IEDB peptide-MHC binding, purified MHC/direct/fluorescence; filed as Kd, often an IC50 or EC50 that approximates it; ≥ and ≤ were set here for values at or beyond the usual limits of such assays; settings: source organism: dengue virus type 1
HLA-B*46:01 = assay: as above; settings: source organism: Dengue virus
HLA-B*27:20 = assay: IEDB peptide-MHC binding, purified MHC/competitive/fluorescence; filed as Kd, often an IC50 or EC50 that approximates it; ≥ and ≤ were set here for values at or beyond the usual limits of such assays; settings: source organism: Bacillus anthracis str. A0488
HLA-B*15:42 = assay: as above; settings: source organism: Bacillus anthracis str. A0488
HLA-C*06:02 = assay: as above; settings: source organism: Bacillus anthracis str. A0488
HLA-A*32:07 = assay: as above; settings: source organism: Bacillus anthracis str. A0488
HLA-B*83:01 = assay: as above; settings: source organism: Bacillus anthracis str. A0488
HLA-B*45:06 = assay: as above; settings: source organism: Bacillus anthracis str. A0488
HLA-A*24:03 = assay: as above; settings: source organism: Bacillus anthracis str. A0488
HLA-A*03:19 = assay: as above; settings: source organism: Bacillus anthracis str. A0488
HLA-B*40:13 = assay: as above; settings: source organism: Bacillus anthracis str. A0488
HLA-C*15:02 = assay: IEDB peptide-MHC binding, purified MHC/direct/fluorescence; filed as Kd, often an IC50 or EC50 that approximates it; ≥ and ≤ were set here for values at or beyond the usual limits of such assays; settings: source organism: Bacillus anthracis str. A0488

Row | Sequence | Kd (HLA-A*30:02) | Kd (HLA-B*15:02) | Kd (HLA-B*46:01) | Kd (HLA-B*27:20) | Kd (HLA-B*15:42) | Kd (HLA-C*06:02) | Kd (HLA-A*32:07) | Kd (HLA-B*83:01) | Kd (HLA-B*45:06) | Kd (HLA-A*24:03) | Kd (HLA-A*03:19) | Kd (HLA-B*40:13) | Kd (HLA-C*15:02)
1 | KLEGKIVQY | 833 nM | ≥ 20000 nM | ≥ 20000 nM |  |  |  |  |  |  |  |  |  | 
2 | RFFKHFMSL |  |  |  | 16.1 nM | ≥ 5000 nM | 1190 nM | 0.4 nM | ≥ 5000 nM | ≥ 5000 nM | ≤ 0.1 nM | 46.1 nM | 5.2 nM | 1570 nM
